# Target: mannose receptor (MR) (human (endogenous in primary monocyte-derived macrophages)) (UniProt P22897)
substance,measurement,value
HIV-1 89.6 Env (from UniProt Q73372) (natural protein),"infection of primary human MDM by wild-type HIV-1 89.6 (intracellular Gag stain) with increasing concentrations of soluble mannan, normalized to 0 mg/mL mannan",16 fold

# Source: publication PMC7051176
